B1: NT7 protein fragment (N-terminal T7 RNA polymerase fragment without Tlpa coiled-coil) (other)
chain: MNTINIAKNDFSDIELAAIPFNTLADHYGERLAREQLALEHESYEMGEARFRKMFERQLKAGEVADNAAAKPLITTLLPKMIARINDWFEEVKAKRGKRPTAFQFLQEIKPEAVAYITIKTTLACLTSADNTTVQAVASAIGRAIEDEARFGRIRDLEAKHFKKNVEEQLNKRVGHVYKKAFMQVVEADMLSKGLLGGEAWSSWHKEDSIHVGVRCIEMLIESTGMVSLHRQNAGVVGQDSETIELAPEYAEAIATRAGALAGISPMFQPCVVPPKPWTGITGGGYWANGRRPLALVRTHSKKALMRYEDVYMPEVYKAINIAQNTAWKINKKVLAVANVITKWKHCPVEDIPAIEREELPMKPEDIDMNPEALTAWKRAAAAVYRKDKARKSRRISLEFMLEQANKFANHKAIWFPYNMDWRGRVYAVSMFNPQGNDMTKGLLTLAKGKPIGKEGYYWLKIHGANCAGVDKVPFPERIKFIEENHENIMACAKSPLENTWWAEQDSPFCFLAFCFEYAGVQHHGLSYNCSLPLAFDGSCSGIQHFSAMLRDEVGGRAVNLLP

Columns and labels:
[1] = biological target: CT7-Tlpa coil fusion protein (Tlpa coiled-coil domain - GGSGG linker - C-terminal T7 RNA polymerase fragment) (T7 phage); assay: cell-based or functional assay
[2] = biological target: CT7 protein fragment (C-terminal T7 RNA polymerase fragment without Tlpa coiled-coil) (T7 phage, UniProt P00573 564-883); assay: cell-based or functional assay

Molecule | fold-difference of pT7-GFP reporter between 30° C. and 42° C., Thermal-T7RNAP(v3) [1] | half-activation temperature Km of pT7-GFP reporter, Thermal-T7RNAP(v1) [1] | half-activation temperature Km of pT7-GFP reporter, Thermal-T7RNAP(v2) [1] | half-activation temperature Km of pT7-GFP reporter, Thermal-T7RNAP(v3) [1] | maximum repression capacity Kinh of pT7-GFP reporter, Thermal-T7RNAP(v1) [1] | maximum repression capacity Kinh of pT7-GFP reporter, Thermal-T7RNAP(v2) [1] | maximum repression capacity Kinh of pT7-GFP reporter, Thermal-T7RNAP(v3) [1] | fold-difference of pT7-GFP reporter between 30° C. and 42° C., Split-T7 system (no Tlpa coil) [2]
NT7-Tlpa coil fusion protein (N-terminal T7 RNA polymerase fragment - GGSGG linker - Tlpa coiled-coil domain) | 24 fold | 37.5 ° C. | 38.4 ° C. | 36.3 ° C. | 0.957 | 0.427 | 0.971 | –
B1 | – | – | – | – | – | – | – | 4 fold

Reference: patent US20240035059A1 (NATIONAL UNIVERSITY OF SINGAPORE, published 2024)
